Laboratory results from US20230235013A1 (MABSOLVE, published 2023).
Numbering of substitutions follows the chain as printed. Names may count otherwise.

T1: mouse FcRn (Sino Biological Cat. No. CT029-M08H) (mouse, UniProt Q61559 22-297; P01887 21-119)
T1 construct: Bought protein, captured on an anti-histidine chip
T1 sequence (looked up): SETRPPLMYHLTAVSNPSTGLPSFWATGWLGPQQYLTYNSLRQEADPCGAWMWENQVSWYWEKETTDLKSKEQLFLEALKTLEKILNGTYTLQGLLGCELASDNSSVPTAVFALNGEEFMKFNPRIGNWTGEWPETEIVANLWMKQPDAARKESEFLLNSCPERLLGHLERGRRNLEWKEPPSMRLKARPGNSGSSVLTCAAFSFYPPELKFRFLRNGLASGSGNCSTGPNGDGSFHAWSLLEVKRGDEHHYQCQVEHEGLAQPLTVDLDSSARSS
T1 sequence (b2m, looked up): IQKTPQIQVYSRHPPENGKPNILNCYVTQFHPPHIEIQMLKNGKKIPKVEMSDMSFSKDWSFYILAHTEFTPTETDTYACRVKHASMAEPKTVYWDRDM

B1: anti-CD3 human IgG1 L234A/L235A/P329G (LALAPG reference) (antibody)
heavy: not shown
light: QIVLTQSPAIMSASPGEKVTMTCSASSSVSYMNWYQQKSGTSPKRWIYDTSKLASGVPAHFRGSGSGTSYSLTISGMEAEDAATYYCQQWSSNPFTFGSGTKLEIKRTVAAPSVFIFPPSDEQLKSGTASVVCLLNNFYPREAKVQWKVDNALQSGNSQESVTEQDSKDSTYSLSSTLTLSKADYEKHKVYACEVTHQGLSSPVTKSFNRGEC
notes: also called 3-66; copies: 2 + 2
B2: anti-CD20 (rituximab) human IgG1 wild-type reference (antibody)
heavy: not shown
light: QIVLSQSPAILSASPGEKVTMTCRASSSVSYIHWFQQKPGSSPKPWIYATSNLASGVPVRFSGSGSGTSYSLTISRVEAEDAATYYCQQWTSNPPTFGGGTKLEIKRTVAAPSVFIFPPSDEQLKSGTASVVCLLNNFYPREAKVQWKVDNALQSGNSQESVTEQDSKDSTYSLSSTLTLSKADYEKHKVYACEVTHQGLSSPVTKSFNRGEC
notes: 2-1 and 10.0 are separate preparations of the same antibody; also called 2-1; 10.0; copies: 2 + 2
B3: anti-CD20 (rituximab) human IgG1 L234A/L235S/G236R (antibody)
heavy: not shown
light: B2 light
notes: EU numbering; also called 2-4; 1-14; copies: 2 + 2
B4: anti-CD20 (rituximab) human IgG1 L234A/L235A/P329G (LALAPG reference) (antibody)
heavy: not shown
light: B2 light
notes: EU numbering; also called 2-66; copies: 2 + 2
B5: anti-CD20 (rituximab) human IgG1 N297Q (aglycosyl) (antibody)
heavy: not shown
light: B2 light
notes: EU numbering; also called 2-67; copies: 2 + 2
B6: anti-CD20 (rituximab) human IgG1 L234G/L235S/G236R (antibody)
heavy: QVQLQQPGAELVKPGASVKMSCKASGYTFTSYNMHWVKQTPGRGLEWIGAIYPGNGDTSYNQKFKGKATLTADKSSSTAYMQLSSLTSEDSAVYYCARSTYYGGDWYFNVWGAGTTVTVSSASTKGPSVFPLAPSSKSTSGGTAALGCLVKDYFPEPVTVSWNSGALTSGVHTFPAVLQSSGLYSLSSVVTVPSSSLGTQTYICNVNHKPSNTKVDKKVEPKSCDKTHTCPPCPAPEGSRGPSVFLFPPKPKDTLMISRTPEVTCVVVDVSHEDPEVKFNWYVDGVEVHNAKTKPREEQYNSTYRVVSVLTVLHQDWLNGKEYKCKVSNKALPAPIEKTISKAKGQPREPQVYTLPPSRDELTKNQVSLTCLVKGFYPSDIAVEWESNGQPENNYKTTPPVLDSDGSFFLYSKLTVDKSRWQQGNVFSCSVMHEALHNHYTQKSLSLSPGK
light: B2 light
notes: EU numbering; also called 2-19; 1-59; copies: 2 + 2
B7: anti-CD20 (rituximab) human IgG1 L234A/L235A (LALA) (antibody)
heavy: not shown
light: B2 light
notes: EU numbering; also called 2-65; 10.16; copies: 2 + 2
B8: anti-CD20 (rituximab) human IgG1 L234S/L235T/G236R (antibody)
heavy: B6 heavy with G238S, S239T
light: B2 light
notes: EU numbering; also called 2-52; 1-150; copies: 2 + 2
B9: anti-CD20 (rituximab) human IgG1 L234T/L235T/G236R (antibody)
heavy: B6 heavy with G238T, S239T
light: B2 light
notes: EU numbering; also called 2-63; 1-165; copies: 2 + 2
B10: anti-CD20 (rituximab) human IgG1 L234Q/L235S/G236R (antibody)
heavy: B6 heavy with G238Q
light: B2 light
notes: EU numbering; also called 2-33; 10.77; copies: 2 + 2

What was measured:
[1] = molecular target: T2, CD3D/CD3E heterodimer (Sino Biologicals Cat. No. CT038-H2508H) (human, UniProt P04234 22-105; P07766 23-126); assay: ELISA, antigen coated, antibody 5 µg/mL
T2 construct: bought; also called CD3 antigen; human CD3

[2] = molecular target: T3, Histidine-tagged recombinant human FcγRI (CD64) (human, UniProt P12314 16-288); assay: SPR, captured His-receptor
T3 construct: bought; also called Sino Biological Cat. No. 12056-H08H

[3] = molecular target: T4, Human C1q (Sigma Cat. No. 20476), HRP-labelled (human, UniProt P02745 23-245; P02746 28-253; P02747 29-245); assay: ELISA, antibody coated, HRP-C1q; Expt 2, buffer alone 0.051
T4 construct: Coupled to horse-radish peroxidase with Lightning-Link kit; also called HRP-labelled C1q

[4] = molecular target: T4, Human C1q (Sigma Cat. No. 20476), …; assay: ELISA, antibody coated, HRP-C1q; Expt 3, buffer alone 0.102
[5] = molecular target: T5, human FcRn (R&D Systems Cat. No. 8639-Fc) (human, UniProt P55899 24-297; P61769 21-119); assay: SPR, FcRn captured; Expt 1
[6] = molecular target: T5, human FcRn (R&D Systems Cat. No. …); assay: SPR, FcRn captured; Expt 2
[7] = molecular target: T4, Human C1q (Sigma Cat. No. 20476), …; assay: ELISA, antibody coated, HRP-C1q; Expt 1, buffer alone 0.061
[8] = molecular target: T4, Human C1q (Sigma Cat. No. 20476), …; assay: ELISA, antibody coated, HRP-C1q; Expt 1, buffer alone 0.053
[9] = molecular target: T5, human FcRn (R&D Systems Cat. No. …); assay: SPR, FcRn captured via anti-His, pH 6.0;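 also: SPR binding signal relative to the reference cell, corrected by subtracting the response of a blank sample of running buffer alone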
[10] = molecular target: T6, cynomolgus monkey FcRn (Sino Biological Cat. No. CT031-C08H) (cynomolgus monkey, UniProt Q8SPV9 24-297; Q8SPW0 21-119); assay: SPR, FcRn captured via anti-His, pH 6.0;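 also: SPR binding signal relative to the reference cell, corrected by subtracting the response of a blank sample of running buffer alone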
T6 construct: Bought protein, captured on an anti-histidine chip; also called cynomolgus FcRn

[11] = molecular target: T1, mouse FcRn (Sino Biological Cat. No. …); assay: SPR, FcRn captured via anti-His, pH 6.0;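 also: SPR binding signal relative to the reference cell, corrected by subtracting the response of a blank sample of running buffer alone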
[12] = molecular target: T5, human FcRn (R&D Systems Cat. No. …); assay: SPR, FcRn captured; Expt 3
[13] = molecular target: T7, C-terminus biotinylated human FcRn attached to Streptavidin-SmBiT (FcRn-SAv-SmBiT) (human, UniProt P55899 24-297; P61769 21-119, limits assumed, C-terminus biotinylated (AviTag), attached to Streptavidin-SmBiT); assay: NanoBiT FcRn competition immunoassay, competitor Tracer-LgBiT human IgG, pH 6.0
T7 construct: Kit reagent; also called hFcRn-AviTag

[14] = molecular target: T5, human FcRn (R&D Systems Cat. No. …); assay: SPR, FcRn captured; Mean
[15] = molecular target: T4, Human C1q (Sigma Cat. No. 20476), …; assay: ELISA, antibody coated, HRP-C1q; Expt 2, buffer alone 0.091

| Binder | Mean Absorbance [1] | binding result [2] | Mean Absorbance [3] | Mean Absorbance [4] | Corrected and normalised response (% of wild-type reference) [5] | Corrected and normalised response (% of wild-type reference) [6] | Mean Absorbance [7] | Mean Absorbance [8] | Corrected response (RU) [9] | Corrected response (RU) [10] | Corrected response (RU) [11] | Corrected and normalised response (% of wild-type reference) [12] | Mean binding activity (% of wild-type reference) [13] | Corrected and normalised response (% of wild-type reference) [14] | Mean Absorbance [15] |
| --- | --- | --- | --- | --- | --- | --- | --- | --- | --- | --- | --- | --- | --- | --- | --- |
| B1 | 1.13 absorbance | binds |  |  |  |  |  |  |  |  |  |  |  |  |  |
| B2 |  |  | 1.33 absorbance (450 nm) | 1.88 absorbance (450 nm) | 100 % of wild-type reference | 100 % of wild-type reference | 2.63 absorbance (450 nm) | 1.83 absorbance (450 nm) | 582 RU | 1320 RU | 178 RU | 100 % of wild-type reference | 100 % of wild-type reference | 100 % of wild-type reference | 2.21 absorbance (450 nm) |
| B3 |  |  |  | 0.095 absorbance (450 nm) | 96.5 % of wild-type reference | 95.7 % of wild-type reference | 0.041 absorbance (450 nm) |  | 539 RU | 1260 RU | 146 RU | 95.8 % of wild-type reference |  | 96 % of wild-type reference | 0.1 absorbance (450 nm) |
| B4 |  |  |  | 0.103 absorbance (450 nm) | 95.1 % of wild-type reference | 96.4 % of wild-type reference |  |  |  |  |  | 93.6 % of wild-type reference | 96.7 % of wild-type reference | 95.1 % of wild-type reference | 0.08 absorbance (450 nm) |
| B5 |  |  |  | 0.083 absorbance (450 nm) | 78.4 % of wild-type reference | 78.7 % of wild-type reference |  |  | 421 RU | 1010 RU | 163 RU | 76.6 % of wild-type reference | 34.1 % of wild-type reference | 77.9 % of wild-type reference | 0.076 absorbance (450 nm) |
| B6 |  |  |  | 0.064 absorbance (450 nm) | 97.1 % of wild-type reference | 96 % of wild-type reference | 0.052 absorbance (450 nm) |  |  |  |  | 95.7 % of wild-type reference | 77.8 % of wild-type reference | 96.3 % of wild-type reference | 0.091 absorbance (450 nm) |
| B7 |  |  |  | 0.08 absorbance (450 nm) | 92.8 % of wild-type reference | 94.2 % of wild-type reference |  |  | 505 RU | 1180 RU | 190 RU | 92.9 % of wild-type reference | 70.1 % of wild-type reference | 93.3 % of wild-type reference | 0.078 absorbance (450 nm) |
| B8 |  |  |  | 0.083 absorbance (450 nm) | 98.3 % of wild-type reference | 97.9 % of wild-type reference | 0.047 absorbance (450 nm) |  |  |  |  | 93.7 % of wild-type reference | 98.6 % of wild-type reference | 96.6 % of wild-type reference | 0.079 absorbance (450 nm) |
| B9 |  |  |  | 0.095 absorbance (450 nm) | 96 % of wild-type reference | 95.1 % of wild-type reference | 0.068 absorbance (450 nm) |  |  |  |  | 88.1 % of wild-type reference | 150 % of wild-type reference | 93 % of wild-type reference | 0.077 absorbance (450 nm) |
| B10 |  |  |  | 0.083 absorbance (450 nm) | 98.4 % of wild-type reference | 97.8 % of wild-type reference | 0.026 absorbance (450 nm) |  | 535 RU | 1230 RU | 166 RU | 98.2 % of wild-type reference |  | 98.1 % of wild-type reference | 0.084 absorbance (450 nm) |
